From PMC4699573 (Molecular bioSystems, 2016)

Biological target: T1, EcoR124I (Escherichia coli, UniProt P10484+P10485+P10486)
T1 sequence (P10485 1-404): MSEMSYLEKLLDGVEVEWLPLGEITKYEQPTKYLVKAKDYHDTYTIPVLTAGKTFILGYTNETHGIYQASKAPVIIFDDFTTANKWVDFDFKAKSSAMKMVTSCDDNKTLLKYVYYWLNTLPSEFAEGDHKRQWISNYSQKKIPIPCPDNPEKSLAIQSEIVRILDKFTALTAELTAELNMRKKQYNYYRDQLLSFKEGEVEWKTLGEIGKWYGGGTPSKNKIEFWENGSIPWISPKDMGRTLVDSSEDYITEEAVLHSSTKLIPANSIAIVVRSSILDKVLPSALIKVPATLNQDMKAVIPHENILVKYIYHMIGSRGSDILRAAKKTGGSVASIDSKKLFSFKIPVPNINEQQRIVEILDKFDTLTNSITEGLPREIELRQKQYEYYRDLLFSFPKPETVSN
T1 sequence (P10484 1-520): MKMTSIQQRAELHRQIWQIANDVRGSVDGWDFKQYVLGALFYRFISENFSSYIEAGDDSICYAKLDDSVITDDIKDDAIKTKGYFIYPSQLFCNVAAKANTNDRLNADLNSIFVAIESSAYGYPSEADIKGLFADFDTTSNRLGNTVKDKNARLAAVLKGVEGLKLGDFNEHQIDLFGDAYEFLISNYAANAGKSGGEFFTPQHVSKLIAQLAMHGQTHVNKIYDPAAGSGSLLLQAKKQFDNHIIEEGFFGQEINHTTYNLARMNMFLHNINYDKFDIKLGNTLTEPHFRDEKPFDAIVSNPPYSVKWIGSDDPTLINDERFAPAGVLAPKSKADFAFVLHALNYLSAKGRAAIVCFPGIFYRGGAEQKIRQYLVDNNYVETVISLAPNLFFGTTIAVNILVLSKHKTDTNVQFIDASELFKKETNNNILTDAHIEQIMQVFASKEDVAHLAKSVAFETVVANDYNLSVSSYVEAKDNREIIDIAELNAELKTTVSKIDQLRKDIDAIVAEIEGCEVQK
T1 sequence (P10486 1-1038): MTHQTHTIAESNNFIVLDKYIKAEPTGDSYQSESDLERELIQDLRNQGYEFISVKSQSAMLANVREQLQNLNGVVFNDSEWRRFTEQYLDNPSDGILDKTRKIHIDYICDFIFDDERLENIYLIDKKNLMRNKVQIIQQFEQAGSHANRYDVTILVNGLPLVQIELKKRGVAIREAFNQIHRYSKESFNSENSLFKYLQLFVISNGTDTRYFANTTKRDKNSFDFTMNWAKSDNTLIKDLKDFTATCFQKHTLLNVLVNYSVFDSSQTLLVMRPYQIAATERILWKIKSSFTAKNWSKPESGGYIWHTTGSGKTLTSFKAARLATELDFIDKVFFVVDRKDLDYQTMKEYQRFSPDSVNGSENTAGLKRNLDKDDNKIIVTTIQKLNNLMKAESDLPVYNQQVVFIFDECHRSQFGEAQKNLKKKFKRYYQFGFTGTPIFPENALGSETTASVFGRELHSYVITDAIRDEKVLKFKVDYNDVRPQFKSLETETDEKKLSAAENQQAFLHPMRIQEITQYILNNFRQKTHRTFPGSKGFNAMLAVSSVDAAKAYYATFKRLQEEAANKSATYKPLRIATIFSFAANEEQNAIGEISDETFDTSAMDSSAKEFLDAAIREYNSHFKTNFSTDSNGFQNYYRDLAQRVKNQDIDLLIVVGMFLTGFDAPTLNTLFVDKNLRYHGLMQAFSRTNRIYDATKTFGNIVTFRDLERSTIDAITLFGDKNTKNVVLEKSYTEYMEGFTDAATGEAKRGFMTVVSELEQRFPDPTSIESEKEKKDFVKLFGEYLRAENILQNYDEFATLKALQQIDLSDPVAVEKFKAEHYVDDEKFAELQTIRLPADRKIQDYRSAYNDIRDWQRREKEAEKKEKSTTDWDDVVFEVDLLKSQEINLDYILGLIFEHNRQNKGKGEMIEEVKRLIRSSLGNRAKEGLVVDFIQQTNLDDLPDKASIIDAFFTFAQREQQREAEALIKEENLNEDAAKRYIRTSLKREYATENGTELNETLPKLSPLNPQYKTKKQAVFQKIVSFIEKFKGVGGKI
Test: Coupled spectrophotometric ATPase assay
Assay type: biochemical
Details: EcoR124I pre-incubated with protein, reaction initiated by scDNA; Figure S1

Ocr: anti-restriction protein of bacteriophage T7 (overcome classical restriction), mimics B-DNA
Concentration at which ATP hydrolysis of EcoR124I is retarded / abolished: 100 nM
